The text below walks through data of the supplement of paper PMC10724198.

± gives the standard deviation of the averaged measurements.
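Further: PSI is a weighted mean of sequencing reads over stability bins, variants kept only with over 10 reads, mCherry proximal and sfGFP distal, peptide attached via GGGS linker.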

This data set has as its system Saccharomyces cerevisiae. The data set can be described thus: protein stability index of tFT-peptide fusion (C-terminal peptide) (PSI (0-1 scale)); higher = more stable (slower turnover). The following applies: genetic background: wild type; temperature: 30 C.
Take LLCLKIGASWSK: the protein stability index amounted to 0.674 ± 0.028.

LLCLVSCFGCWL came in with a protein stability index of 0.585 ± 0.052.

For the sequence LLDGAGGGVGEG, the protein stability index amounted to 0.738 ± 0.033.

For LLDLYTLSRLDP, the protein stability index was 0.754 ± 0.043.

LLDRGLLSALLA had a protein stability index of 0.563 ± 0.034.

In turn, LLDTSTVTCFER showed a protein stability index of 0.741 ± 0.01.

Sequence LLFPSPPLPPPL displayed a protein stability index of 0.784 ± 0.15.

Sequence LLFSTPWVWCLL showed a protein stability index of 0.623 ± 0.051.

For the sequence LLFTWGGRGCLG, the protein stability index worked out at 0.746 ± 0.032.

LLGRGVSLFRCG: the protein stability index is 0.643 ± 0.3.

Turning to LLLASSFFTLIL, the protein stability index is 0.687 ± 0.043.

The sequence LLLDIFYWTVQS came in with a protein stability index of 0.615 ± 0.049.

On to LLLDRGISLLLL, for which the protein stability index is 0.607 ± 0.026.

For the sequence LLLLIPCYSPPP, the protein stability index was determined as 0.659 ± 0.071.

The sequence LLLLLPPLPFVP showed a protein stability index of 0.66 ± 0.035.

LLLPPRLPNISP had a protein stability index of 0.709 ± 0.044.

In turn, LLLSPSRLPPAD displayed a protein stability index of 0.676 ± 0.043.

Sequence LLLTGYGLLPST yielded a protein stability index of 0.676 ± 0.079.

LLNAARIGNKGP showed a protein stability index of 0.663 ± 0.06.

In turn, LLNIPLVFFSFP came in with a protein stability index of 0.58 ± 0.1.

For the sequence LLNLLLFLLPPS, the protein stability index was determined as 0.636 ± 0.031.

Turning to LLPNLFDSQFRE, the protein stability index came to 0.756 ± 0.044.

The sequence LLPPPPLPPPRP yielded a protein stability index of 0.67 ± 0.032.

Consider LLPPPPPPSTPT, for which the protein stability index amounted to 0.798 ± 0.083.

For the sequence LLPPPPTPDPGP, the protein stability index was 0.645 ± 0.0067.

For LLPPPSRTPPPS, the protein stability index was 0.688 ± 0.02.

LLPPSLLSPPPF: the protein stability index worked out at 0.696 ± 0.094.

Take LLPRSPLLPPLH: the protein stability index is 0.719 ± 0.0048.

In turn, LLPSPSYPLSPS displayed a protein stability index of 0.751 ± 0.037.

Take LLPTRPAPHLSL: the protein stability index was 0.704 ± 0.17.

LLRGDVVALRAH came in with a protein stability index of 0.618 ± 0.052.

As for LLRLLYVGVVGR, the protein stability index turned out to be 0.573 ± 0.027.

For LLRRSNLLHLVL, the protein stability index was 0.574 ± 0.049.

With LLRYKWSRHLVG, the protein stability index was 0.47 ± 0.046.

The sequence LLSLFLLSPSVI came in with a protein stability index of 0.681 ± 0.007.

LLSLRSPCSSSR came in with a protein stability index of 0.697 ± 0.066.

LLSPLRPPPFAP yielded a protein stability index of 0.698 ± 0.041.

In turn, LLSVFPLHPGSP returned a protein stability index of 0.73 ± 0.047.

Sequence LLVLHVFPLASH returned a protein stability index of 0.553 ± 0.035.

In turn, LLVLSTVFNYPI had a protein stability index of 0.655 ± 0.071.

For LLWPVFQCLPLL, the protein stability index amounted to 0.729 ± 0.045.

Regarding LLYPRYFSTGIT, the protein stability index was 0.558 ± 0.065.

Regarding LMHDIRLCSSVV, the protein stability index worked out at 0.702 ± 0.074.

For LMLSGFGSFCVA, the protein stability index was found to be 0.659 ± 0.025.

LMRFFSCTLSFE registered a protein stability index of 0.62535 ± 0.00026.

In turn, LMRSFLHFHLCL displayed a protein stability index of 0.632 ± 0.01.

For the sequence LMVCQKPYCMRI, the protein stability index was 0.678 ± 0.0014.

Consider LNLISGVRFSLY, for which the protein stability index was found to be 0.675 ± 0.043.

LNQHEQKRKNEG gave a protein stability index of 0.724 ± 0.098.

With LNRTLCYKCILR, the protein stability index came to 0.564 ± 0.018.

In the case of LNSTDMNKKKFK, the protein stability index amounted to 0.719 ± 0.0092.

LPAEGSTKSRSY: the protein stability index is 0.741 ± 0.055.

Sequence LPAPLLSPPRHF had a protein stability index of 0.746 ± 0.072.

LPARSLPPPRPP had a protein stability index of 0.653 ± 0.0089.

As to LPASSPTEYPPP, the protein stability index came out at 0.713 ± 0.049.

With LPFFFPPFFITR, the protein stability index came to 0.532 ± 0.013.

Take LPFLLPLVTPLP: the protein stability index came to 0.696 ± 0.068.

Take LPFPPSPPLPSP: the protein stability index came to 0.57 ± 0.0099.

In turn, LPGFTLPSSPSH yielded a protein stability index of 0.702 ± 0.034.

Take LPGGLSPPPFRI: the protein stability index is 0.715 ± 0.064.

LPGTVELHSSRL had a protein stability index of 0.755 ± 0.022.

Consider LPHPRLPSPPGP, for which the protein stability index was found to be 0.6858 ± 0.0056.

Turning to LPILPSPLPPPL, the protein stability index is 0.69 ± 0.049.

The sequence LPIPCPSPPPPR returned a protein stability index of 0.708 ± 0.052.

As for LPLPPRFRRLYL, the protein stability index worked out at 0.7 ± 0.038.

As to LPLPVLPCVPPV, the protein stability index came to 0.595 ± 0.028.

In the case of LPLQYPPSLLRL, the protein stability index came to 0.6655 ± 0.0065.

Turning to LPLRVPPPPSSH, the protein stability index worked out at 0.743 ± 0.085.

LPLSGIETSVSR returned a protein stability index of 0.683 ± 0.03.

For LPLSSLLRPRHS, the protein stability index came out at 0.684 ± 0.056.

For LPNLCRLISFGS, the protein stability index was 0.646 ± 0.036.

As to LPPAPLLSLPSL, the protein stability index came out at 0.6921 ± 0.0034.

LPPCSPLIFYFH yielded a protein stability index of 0.636 ± 0.032.

In the case of LPPHSAPLAHGP, the protein stability index is 0.714 ± 0.065.

LPPLAACAPSAV gave a protein stability index of 0.615 ± 0.051.

In turn, LPPLAPAPPTTS showed a protein stability index of 0.617 ± 0.0065.

Consider LPPLLAPPVSPL, for which the protein stability index was determined as 0.698 ± 0.039.

In turn, LPPPLPPATPPP yielded a protein stability index of 0.675 ± 0.16.

LPPPPPSSSPSP showed a protein stability index of 0.7005 ± 0.0067.

LPPPPRPLPPSP displayed a protein stability index of 0.696 ± 0.04.
